Data as given in PMC5705181 (Science (New York, N.Y.), 2017).

Legend:
P5C reductase = P5C reductase (Clostridioides difficile, UniProt Q180C5); experiment: spectrophotometric assay; type: biochemical; conditions: mere turnover
purified protein [1] = substrate: C[C@H](O)CO; experiment: purified protein; conditions: activated by PD-AE, SAM, 5-deazariboflavin; anaerobic
purified protein [2] = substrate: C[C@@H](O)CO; experiment: purified protein; conditions: activated by PD-AE, SAM, 5-deazariboflavin; anaerobic
purified protein [3] = substrate: O=C(O)[C@@H]1C[C@@H](O)CN1; experiment: purified protein; type: biochemical, Clostridioides difficile; conditions: activated by t4LHypD-AE, SAM, acriflavine; anaerobic

For O=C(O)[C@@H]1CCCN1 [L-proline], the spectrophotometric assay (P5C reductase; reverse direction (interconversion with P5C)) was “P5C reductase could interconvert P5C and L-proline”.

In the case of O=C(O)[C@@H]1CCC=N1 [Δ^1-pyrroline-5-carboxylate], the spectrophotometric assay (P5C reductase; NADH as reductant in the coupled assay) is reported as “P5C reductase could interconvert P5C and L-proline”.

B1: PD (propanediol dehydratase, GRE Cluster 16) (Roseburia inulinivorans) (protein)
chain: MGNYDSTPIAKSDRIKRLVDHLYAKMPEIEAARAELITESFKATEGQPVVMRKARAFEHILKNLPIIIRPEELIVGSTTIAPRGCQTYPEFSYEWLEAEFETVETRSADPFYISEETKKRLLAADAYWKGKTTSELATSYMAPETLRAMKHNFFTPGNYFYNGVGHVTVQYETVLAIGLNGVKEKVRKEMENCHFGDADYSTKMCFLESILISCDAVITYANRYAKMAEEMAEKETDAARRQELLTIARVCKNVPEFPAESFQEACQSFWFIQQVLQIESSGHSISPGRFDQYMYPYYEKDLKEGSLTREYAQELIDCIWVKLNDLNKCRDAASAEGFAGYSLFQNLIVGGQTVQGRDATNDLSFMCITASEHVFLPMPSLSIRVWHGSSKALLMRAAELTRTGIGLPAYYNDEVIIPALVHRGATMDEARNYNIIGCVEPQVPGKTDGWHDAAFFNMCRPLEMVFSNGYDNGEIASIQTGNVESFQSFDEFMEAYRKQMLYNIELMVNADNAIDYAHAKLAPLPFESCLVDDCIKRGMSAQEGGAIYNFTGPQGFGIANVADSLYTIKKLVFEEKRITMGELKKALEMNYGKGLDATTAGDIAMQVAKGLKDAGQEVGPDVIANTIRQVLEMELPEDVRKRYEEIHEMILELPKYGNDIDEVDELAREAAYFYTRPLETFKNPRGGMYQAGLYPVSANVPLGAQTGATPDGRLAHTPVADGVGPTSGFDISGPTASCNSVAKLDHAIASNGTLFNMKMHPTAMAGEKGLESFISLIRGYFDQQGMHMQFNVVDRATLLDAQAHPEKYSGLIVRVAGYSALFTTLSKSLQDDIIKRTEQADNR
With B1 the Km (purified protein [1]) was 8 ± 1 mM, the kcat (purified protein [1]) was 1500 ± 100 s⁻¹ and the Km (purified protein [2]) was 44 ± 4 mM. For the same molecule, the kcat (purified protein [2]) was 330 ± 40 s⁻¹.

B2: t4LHypD (trans-4-hydroxy-L-proline dehydratase, GRE Cluster 15) (Clostridioides difficile) (protein)
chain: MARGTFERTKKLREESINAEPHISIERAVLMTEAYKKYEGSVEIPVLRALSFKHYIENRTLSINDGELIVGEKGDSPNGAPTYPEICCHTMEDLEVMHNRDIINFSVSEEARKIHKEEIIPFWKKRQTRDKIINAMTPEWLAAYEAGMFTEFMEQRAPGHTVCGDTIYKKGFLDLKKDIEARLKELDFLNDLDAYNKKADLEAMAIACDAMVILGKRYAEKARQMAEEETDEAKKKDLLLIAETCDVVPAHKPETYHQAIQMYWFVHIGVTTELNIWDAFTPGRLDQHLNPFYERDVENGILDRDRAQELLECLWVKFNNQPAPPKVGITLKESSTYTDFANINTGGINPDGQDGVNEVSYIILDVMDEMKLIQPSSNVQISKKTPQKFLKRACEISRKGWGQPAFYNTEAIVQELMEAGKTIEDARLGGTSGCVETGCFGKEAYVLTGYMNIPKILELTLNNGYDPISKKQIGIETGDPRNFQSYEELFEAFKKQLHYMIDIKIEGNAVIENICAKHMPCPLMSTIVDDCIEKGKDYQRGGARYNTRYIQGVGIGTITDSLTAIKYNVFDKKKFDMDTLLKALDANFEGYEAILNLVSNKTPKYGNDDDYADEIMQEIFNAYYNEVTGRPTVCGGEYRVDMLPTTCHIYFGEIMGASPNGRLCAKPVSEGISPEKGGDTNGPTAVIKSCAKMDHIKTGGTLLNQRFAPSVVQGEKGLDNMANLVRAYFNMDGHHIQFNVFDKNVLLEAQKNPQDYKDLIVRVAGYSDHFNNLSRTLQDEIIGRTEQTF
B2 showed a Km (purified protein [3]) of 1.2 ± 0.1 mM and a kcat (purified protein [3]) of 45 ± 1 s⁻¹.
